Experimental data published in article PMC9634608, “Multi-crystal native-SAD phasing at 5 keV with a helium environment” (IUCrJ, 2022).

Biological target: the molecule itself
Assay: crystal structure; native-SAD at 5 keV with a helium path, 18 microcrystals, space group R3, 2.6 Å; crystals grown by sitting drop at 4°C in 0.1 M HEPES pH 7.8, 1 mM ZnSO4, 27–29% PEG 400, protein in β-OG

B1: TehA (natural protein)
chain: MNITKPFPLPTGYFGIPLGLAALSLAWFHLENLFPAARMVSDVLGIVASAVWILFILMYAYKLRYYFEEVRAEYHSPVRFSFIALIPITTMLVGDILYRWNPLIAEVLIWIGTIGQLLFSTLRVSELWQGGVFEQKSTHPSFYLPAVAANFTSASSLALLGYHDLGYLFFGAGMIAWIIFEPVLLQHLRISSLEPQFRATMGIVLAPAFVCVSAYLSINHGEVDTLAKILWGYGFLQLFFLLRLFPWIVEKGLNIGLWAFSFGLASMANSATAFYHGNVLQGVSIFAFVFSNVMIGLLVLMTIYKLTKGQFFLK
notes: TehA, a bacterial homolog of the plant nitrate/chloride channel SLAC1; construct as described by Chen et al. (2010); The printed length of 314 residues may differ from the length of the UniProt entry; also called membrane protein TehA; source: E. coli BL21(DE3) pLysS, purified (IMAC, size-exclusion chromatography); not shown: His tag, C-terminal, cleaved
In the case of B1, the “stoichiometry N” value is reported as 3.
